ED50 data for 1 molecule are collected here from US20230235048A1.

The assay deals with human sortilin on the cell surface (recombinant huSortilin on HEK 293 cells; endogenous on U251MG cells) (human), Q99523. In words: flow cytometry, hPGRN-biotin on hSortilin HEK cells clone A (note under the bar chart). The settings on record: remark: other sources report otherwise. (In general: In flow cytometry, cells or beads pass a laser one at a time.)
Chain of human sortilin on the cell surface (recombinant huSortilin on HEK 293 cells; endogenous on U251MG cells) (human), Q99523 (Q99523 78-831): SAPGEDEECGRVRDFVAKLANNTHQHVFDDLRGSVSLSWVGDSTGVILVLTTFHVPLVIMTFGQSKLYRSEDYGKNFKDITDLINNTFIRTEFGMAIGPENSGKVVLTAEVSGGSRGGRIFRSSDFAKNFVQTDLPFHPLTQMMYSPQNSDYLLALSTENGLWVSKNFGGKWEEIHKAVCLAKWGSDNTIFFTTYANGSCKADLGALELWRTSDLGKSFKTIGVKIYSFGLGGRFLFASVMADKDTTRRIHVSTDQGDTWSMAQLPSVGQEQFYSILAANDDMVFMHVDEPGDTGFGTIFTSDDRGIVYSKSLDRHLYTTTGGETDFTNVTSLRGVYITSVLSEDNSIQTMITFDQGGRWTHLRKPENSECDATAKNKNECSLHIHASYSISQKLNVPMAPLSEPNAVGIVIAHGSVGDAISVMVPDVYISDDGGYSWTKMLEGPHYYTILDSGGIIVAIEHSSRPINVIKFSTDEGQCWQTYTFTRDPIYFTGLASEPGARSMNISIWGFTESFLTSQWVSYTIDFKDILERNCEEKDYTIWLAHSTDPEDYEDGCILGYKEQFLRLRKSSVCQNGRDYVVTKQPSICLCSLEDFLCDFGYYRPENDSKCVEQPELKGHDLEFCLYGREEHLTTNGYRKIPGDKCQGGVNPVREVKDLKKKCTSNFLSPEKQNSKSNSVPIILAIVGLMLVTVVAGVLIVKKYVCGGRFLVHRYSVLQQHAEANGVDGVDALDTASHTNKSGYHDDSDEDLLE

B1: human progranulin, biotinylated (huPGRN-Biotin), P28799 18-593 (ligand, UniProt P28799 18-593, looked up)
chain: TRCPDGQFCPVACCLDPGGASYSCCRPLLDKWPTTLSRHLGGPCQVDAHCSAGHSCIFTVSGTSSCCPFPEAVACGDGHHCCPRGFHCSADGRSCFQRSGNNSVGAIQCPDSQFECPDFSTCCVMVDGSWGCCPMPQASCCEDRVHCCPHGAFCDLVHTRCITPTGTHPLAKKLPAQRTNRAVALSSSVMCPDARSRCPDGSTCCELPSGKYGCCPMPNATCCSDHLHCCPQDTVCDLIQSKCLSKENATTDLLTKLPAHTVGDVKCDMEVSCPDGYTCCRLQSGAWGCCPFTQAVCCEDHIHCCPAGFTCDTQKGTCEQGPHQVPWMEKAPAHLSLPDPQALKRDVPCDNVSSCPSSDTCCQLTSGEWGCCPIPEAVCCSDHQHCCPQGYTCVAEGQCQRGSEIVAGLEKMPARRASLSHPRDIGCDQHTSCPVGQTCCPSLGGSWACCQLPHAVCCEDRQHCCPAGYTCNVKARSCEKEVVSAQPATFLARSPHVGVKDVECGEGHFCHDNQTCCRDNRQGWACCPYRQGVCCADRRHCCPAGFRCAARGTKCLRREAPRWDAPLRDPALRQLL
modifications: here or on the partner: biotinylated at a ratio of 5:1 using EZ-Link NHS-PEG4-Biotin
Turning to B1, the ED50 is 30 nM.
